This is an account of results in PMC9706563 (2022).

Test in all cases: FP
For assay [1], the target named is T1, PRMT5-MEP50 complex (full-length, purified) (human | , UniProt O14744 1-637; Q9BQA1 1-342).
In assay [2] the target is T1, PRMT5-MEP50 complex (full-length, …). This is another data set of the same source.
Assay [3] shares this target. The source holds these as a separate data set.

Read-outs that look alike come from different tables or passages of the source. Bridge positions count the residues as written; N and C are the ends. Square brackets hold non-standard residues; d marks the D form. Ends that are not written are not given here. * marks the point of attachment. FITC = O=C1OC2(c3ccc(O)cc3Oc3cc(O)ccc32)c2ccc(NC(=S)*)cc21; Phe(4-NO2) = N[C@@H](Cc1ccc([N+](=O)[O-])cc1)C(=O)O; Gla = N[C@@H](CC(C(=O)O)C(=O)O)C(=O)O; Dap = NC[C@H](N)C(=O)O; AEEA = NCCOCCOCC(=O)O

T1 sequence (O14744 whole entry, chain 1 of 2): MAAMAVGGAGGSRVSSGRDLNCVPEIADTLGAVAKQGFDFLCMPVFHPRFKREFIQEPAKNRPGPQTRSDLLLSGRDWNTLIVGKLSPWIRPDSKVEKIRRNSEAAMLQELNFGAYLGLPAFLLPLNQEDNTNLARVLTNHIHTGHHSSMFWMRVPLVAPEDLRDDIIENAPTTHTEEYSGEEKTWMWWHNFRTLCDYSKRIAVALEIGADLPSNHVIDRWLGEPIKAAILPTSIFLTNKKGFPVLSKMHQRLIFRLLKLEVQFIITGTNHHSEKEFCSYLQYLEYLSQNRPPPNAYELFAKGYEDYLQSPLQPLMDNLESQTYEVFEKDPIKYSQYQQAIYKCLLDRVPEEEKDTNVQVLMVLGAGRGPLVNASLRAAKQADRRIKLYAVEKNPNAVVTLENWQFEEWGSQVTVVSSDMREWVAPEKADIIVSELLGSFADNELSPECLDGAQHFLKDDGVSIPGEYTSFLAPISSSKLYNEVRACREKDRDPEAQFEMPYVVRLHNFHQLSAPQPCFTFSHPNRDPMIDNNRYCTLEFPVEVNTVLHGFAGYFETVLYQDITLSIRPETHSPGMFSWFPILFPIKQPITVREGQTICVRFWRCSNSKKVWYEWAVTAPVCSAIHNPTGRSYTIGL
T1 sequence (Q9BQA1 whole entry, chain 2 of 2): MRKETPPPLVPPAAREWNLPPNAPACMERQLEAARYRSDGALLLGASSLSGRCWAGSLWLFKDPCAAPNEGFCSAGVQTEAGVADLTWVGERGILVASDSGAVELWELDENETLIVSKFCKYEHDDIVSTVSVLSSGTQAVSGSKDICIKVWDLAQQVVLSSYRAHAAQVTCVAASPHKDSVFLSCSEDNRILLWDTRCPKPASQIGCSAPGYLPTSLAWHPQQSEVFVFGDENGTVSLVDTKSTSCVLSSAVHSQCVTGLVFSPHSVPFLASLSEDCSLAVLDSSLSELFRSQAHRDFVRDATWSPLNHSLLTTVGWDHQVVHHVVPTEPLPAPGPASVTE

B1: peptide 4 (native RioK1 PBM sequence, unlabeled reference) (peptide)
chain: SRVVPGQFDDADSSD
modifications: unlabeled; taken as the same span as the printed RioK1 tracer sequence (7BOC entity 2); end groups are in the figure/SI
One may read the Ki as the equilibrium dissociation constant of an inhibitor or competing ligand from its target. B1: the Ki in assay [1] came out at 1800 nM. By Kd is commonly meant the constant that tells how readily two partners part at equilibrium. In turn, VPGQFDDA[Gla] (also: FITC as in peptide 29) [linear peptide 40 (29 with Asp replaced by Gla)] returned a Kd in assay [2] of 245 nM. This counts as sub-micromolar. {FITC-AEEA}-SRVVP[Dap]QFDDADSSD-NH2 (lactam 6-9; not fully specified) [5] gave a Kd in assay [3] above 2000 nM.

Take SRVVP[dA]QFDDADSSD [peptide 1 (RioK1 PBM with D-Ala)]: the affinity in assay [1] corresponds to a Ki of 5100 nM.

In assay [1], SRVVPGQF[dA]DADSSD [peptide 2 (RioK1 PBM with D-Ala)] had a Ki of 4500 nM. The Ki values of the last two molecules are within 1.5-fold of each other. In assay [2], VPGQ[Phe(4-NO2)]DDAD (also: FITC as in peptide 29) [linear peptide 41 (29 with Phe replaced by Phe(4-NO2))] yielded a Kd of 232 nM.

In turn, SRVVP[dA]QF[dA]DADSSD [peptide 3 (RioK1 PBM with D-Ala at 14 and 17)] yielded a Ki in assay [1] of 65000 nM.
